Sequences and labels used below:
T1: AP2-LT D1 (Plasmodium falciparum, UniProt Q8IAM1 2520-2577)
T1 sequence: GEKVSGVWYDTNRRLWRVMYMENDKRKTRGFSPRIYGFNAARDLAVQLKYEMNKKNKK

B1: CACACA_site4294 (dsDNA)
DNA 1: TTTATTAATGGACACACACACACACCCAAAATAAAA
DNA 2: TTTTATTTTGGGTGTGTGTGTGTGTCCATTAATAAA
B2: CACACA_site242 (dsDNA)
DNA 1: TTTATTAAGAAACACACACACACACCCAAAATAAAA
DNA 2: TTTTATTTTGGGTGTGTGTGTGTGTTTCTTAATAAA
B3: CACACA_site4591 (dsDNA)
DNA 1: CACATACAGATATATACACACAAATATATATACTCA
DNA 2: TGAGTATATATATTTGTGTGTATATATCTGTATGTG
B4: CACACA_site4472 (dsDNA)
DNA 1: TTTGAATCCTTATATACACACATTATATAATATTAT
DNA 2: ATAATATTATATAATGTGTGTATATAAGGATTCAAA
B5: CACACA_site7437 (dsDNA)
DNA 1: AGATAAAAAAAGTACACACACACATATATTTATATA
DNA 2: TATATAAATATATGTGTGTGTGTACTTTTTTTATCT
B6: CACACA_site126 (dsDNA)
DNA 1: ACGATATTTTTGGTGACACACATATATATATATATA
DNA 2: TATATATATATATATGTGTGTCACCAAAAATATCGT
B7: CACACA_site7896 (dsDNA)
DNA 1: TATACATACATACATACACACACACCGATATATATA
DNA 2: TATATATATCGGTGTGTGTGTATGTATGTATGTATA
B8: CACACA_site8278 (dsDNA)
DNA 1: GTAACATACACATATACACACACACCGATATACATA
DNA 2: TATGTATATCGGTGTGTGTGTATATGTGTATGTTAC
B9: CACACA_site2423 (dsDNA)
DNA 1: GTGCATAAATCATACACACACACATATATATATATA
DNA 2: TATATATATATATGTGTGTGTGTATGATTTATGCAC
B10: CACACA_site5706 (dsDNA)
DNA 1: CTATTTTGGATGTGTACACATATATATATTTATATT
DNA 2: AATATAAATATATATATGTGTACACATCCAAAATAG
B11: CACACA_site7828 (dsDNA)
DNA 1: TATATAAATAGACACACACACACCTTATAATTACTA
DNA 2: TAGTAATTATAAGGTGTGTGTGTGTCTATTTATATA
B12: CACACA_site2004 (dsDNA)
DNA 1: AAAATGTGCCCACGCGTACACACAAAAAAAGAAAAA
DNA 2: TTTTTCTTTTTTTGTGTGTACGCGTGGGCACATTTT
B13: CACACA_site262 (dsDNA)
DNA 1: ATTATGTATACATAAACACACATATATATAAAAAAA
DNA 2: TTTTTTTATATATATGTGTGTTTATGTATACATAAT
B14: CACACA_site3128 (dsDNA)
DNA 1: CCACTAATAAATATTACACACATATATATATATATT
DNA 2: AATATATATATATATGTGTGTAATATTTATTAGTGG
B15: CACACA_site1139 (dsDNA)
DNA 1: TCTGTTAATATTTATACACACATATATATATATATA
DNA 2: TATATATATATATATGTGTGTATAAATATTAACAGA
B16: CACACA_site699 (dsDNA)
DNA 1: ATTTATATATAATATACACACATATAATCCACATAT
DNA 2: ATATGTGGATTATATGTGTGTATATTATATATAAAT
B17: CACACA_site2254 (dsDNA)
DNA 1: TTTTTTTTTATTATCATGCACACATTTTTTTTTTTT
DNA 2: AAAAAAAAAAAATGTGTGCATGATAATAAAAAAAAA
B18: CACACA_site3695 (dsDNA)
DNA 1: AAGCTTCATTAATATACACACATATATGCGTATATT
DNA 2: AATATACGCATATATGTGTGTATATTAATGAAGCTT
B19: CACACA_site1192 (dsDNA)
DNA 1: AAAAATACCTTATATATACACACTATGTTTTTCTTT
DNA 2: AAAGAAAAACATAGTGTGTATATATAAGGTATTTTT
B20: CACACA_site9096 (dsDNA)
DNA 1: TCATAAATTAAACACACACACACATCTGGATACCCC
DNA 2: GGGGTATCCAGATGTGTGTGTGTGTTTAATTTATGA
B21: CACACA_site656 (dsDNA)
DNA 1: ACAATATCTAGATACACACACATATCTCTCAATCTA
DNA 2: TAGATTGAGAGATATGTGTGTGTATCTAGATATTGT
B22: CACACA_site2459 (dsDNA)
DNA 1: ACCTAAGAACTATTTACACACATATACAAAATATAT
DNA 2: ATATATTTTGTATATGTGTGTAAATAGTTCTTAGGT
B23: CACACA_site3391 (dsDNA)
DNA 1: AAAAAAAAAAAAAACACACATACACGCCCACCCATA
DNA 2: TATGGGTGGGCGTGTATGTGTGTTTTTTTTTTTTTT
B24: CACACA_site4429 (dsDNA)
DNA 1: TAAACATACAGATACACACACACACCCACAGAGACA
DNA 2: TGTCTCTGTGGGTGTGTGTGTGTATCTGTATGTTTA
B25: CACACA_site5230 (dsDNA)
DNA 1: ATAATATCATCAAACGCACACATACATAAATATATT
DNA 2: AATATATTTATGTATGTGTGCGTTTGATGATATTAT
B26: CACACA_site2539 (dsDNA)
DNA 1: TATATATAGAAACACACACACACATATATATATATT
DNA 2: AATATATATATATGTGTGTGTGTGTTTCTATATATA
B27: CACACA_site5592 (dsDNA)
DNA 1: AATATAAACAAACACACACACATATATATATATATT
DNA 2: AATATATATATATATGTGTGTGTGTTTGTTTATATT
B28: CACACA_site3390 (dsDNA)
DNA 1: ACAAAATAAAAACACACACACAAACACAAAAAAATA
DNA 2: TATTTTTTTGTGTTTGTGTGTGTGTTTTTATTTTGT
B29: CACACA_site6577 (dsDNA)
DNA 1: AGCAACCCCCTAGCTACACACATATAGATATAAATA
DNA 2: TATTTATATCTATATGTGTGTAGCTAGGGGGTTGCT
B30: CACACA_site452 (dsDNA)
DNA 1: CACAAAGACACAAACACACACACACCCACATACATA
DNA 2: TATGTATGTGGGTGTGTGTGTGTTTGTGTCTTTGTG
B31: CACACA_site8242 (dsDNA)
DNA 1: AATTTACACGTACGTGTACACACAAAAATATGTTTT
DNA 2: AAAACATATTTTTGTGTGTACACGTACGTGTAAATT
B32: CACACA_site5583 (dsDNA)
DNA 1: ATTAAATACATTAACACACACACAAATAAATACATA
DNA 2: TATGTATTTATTTGTGTGTGTGTTAATGTATTTAAT
B33: CACACA_site8541 (dsDNA)
DNA 1: AAGTACATACATAAAACACACACATATATATATATA
DNA 2: TATATATATATATGTGTGTGTTTTATGTATGTACTT
B34: CACACA_site5591 (dsDNA)
DNA 1: ATAATATAAACATACACACACACATATATATATATA
DNA 2: TATATATATATATGTGTGTGTGTATGTTTATATTAT
B35: CACACA_site960 (dsDNA)
DNA 1: TGAATATTTACTTTAGCACACAATTTGTATTTGATT
DNA 2: AATCAAATACAAATTGTGTGCTAAAGTAAATATTCA
B36: CACACA_site8266 (dsDNA)
DNA 1: TATGCATATACACAAGCACACATATATATATATATA
DNA 2: TATATATATATATATGTGTGCTTGTGTATATGCATA
B37: CACACA_site5015 (dsDNA)
DNA 1: ACCTCATAATATTTAACACACAAAATTATCTGTATG
DNA 2: CATACAGATAATTTTGTGTGTTAAATATTATGAGGT
B38: CACACA_site1961 (dsDNA)
DNA 1: ATTTTTTAACATATCATACACACAACCACTTTTTAT
DNA 2: ATAAAAAGTGGTTGTGTGTATGATATGTTAAAAAAT
B39: CACACA_site1083 (dsDNA)
DNA 1: CTACACAAGCATTAAACACACAAAAGGGATACTTTG
DNA 2: CAAAGTATCCCTTTTGTGTGTTTAATGCTTGTGTAG
B40: CACACA_site6367 (dsDNA)
DNA 1: AATATCTTAGTGGATACACACATATAAATGTGTATT
DNA 2: AATACACATTTATATGTGTGTATCCACTAAGATATT
B41: CACACA_site8822 (dsDNA)
DNA 1: ATTATGCACCAACACACACACACACTCCTAAAAAAT
DNA 2: ATTTTTTAGGAGTGTGTGTGTGTGTTGGTGCATAAT

For the data set, the target named is T1, AP2-LT D1. Put plainly: gcPBM; about 25 ug protein; PBS, 1% milk, 0.2 mg/ml BSA, salmon testes DNA, 0.03% Triton X-100. To be noted: tags: N-terminal GST (pGEX-4T-1), kept; label: surface-attached array probe.
In the case of B1, the binding signal is 10.1 ln median PBM intensity, better of two orientations. For the molecule B2, the binding signal is 10.1 ln median PBM intensity, better of two orientations. Under B3 stands 9.49 ln median PBM intensity, better of two orientations; under B4, 9.33 ln median PBM intensity, better of two orientations; under B5, 9.98 ln median PBM intensity, better of two orientations. B6: the binding signal is 9.9 ln median PBM intensity, better of two orientations. Under B7 stands 9.94 ln median PBM intensity, better of two orientations; under B8, 10 ln median PBM intensity, better of two orientations. Under B9 stands 10 ln median PBM intensity, better of two orientations. Under B10 stands 9.41 ln median PBM intensity, better of two orientations; under B11, 10.2 ln median PBM intensity, better of two orientations; under B12, 9.36 ln median PBM intensity, better of two orientations. Take B13: the binding signal was 9.35 ln median PBM intensity, better of two orientations.

As for B14, the binding signal was 9.47 ln median PBM intensity, better of two orientations. The figure for B15 is 9.45 ln median PBM intensity, better of two orientations; for B16 it is 9.4 ln median PBM intensity, better of two orientations. Under B17 stands 9.48 ln median PBM intensity, better of two orientations; under B18, 9.46 ln median PBM intensity, better of two orientations. Under B19 stands 9.31 ln median PBM intensity, better of two orientations; under B20, 10.1 ln median PBM intensity, better of two orientations. As for B21, the binding signal was 9.5 ln median PBM intensity, better of two orientations. Under B22 stands 9.34 ln median PBM intensity, better of two orientations; under B23, 10.1 ln median PBM intensity, better of two orientations. Under B24 stands 10.1 ln median PBM intensity, better of two orientations; under B25, 9.51 ln median PBM intensity, better of two orientations; under B26, 10.1 ln median PBM intensity, better of two orientations. Under B27 stands 9.96 ln median PBM intensity, better of two orientations; under B28, 10.1 ln median PBM intensity, better of two orientations; under B29, 9.99 ln median PBM intensity, better of two orientations. Turning to B30, the binding signal was 10 ln median PBM intensity, better of two orientations. Under B31 stands 9.37 ln median PBM intensity, better of two orientations; under B32, 9.88 ln median PBM intensity, better of two orientations. Under B33 stands 9.93 ln median PBM intensity, better of two orientations.

Regarding B34, the binding signal is 10.1 ln median PBM intensity, better of two orientations. The figure for B35 is 9.42 ln median PBM intensity, better of two orientations; for B36 it is 10.1 ln median PBM intensity, better of two orientations. The figure for B37 is 9.39 ln median PBM intensity, better of two orientations; for B38 it is 9.38 ln median PBM intensity, better of two orientations; for B39 it is 9.43 ln median PBM intensity, better of two orientations. The figure for B40 is 9.32 ln median PBM intensity, better of two orientations. Turning to B41, the binding signal was 9.97 ln median PBM intensity, better of two orientations.

These data come from article PMC11417369, “DNA sequence and chromatin differentiate sequence-specific transcription factor binding in the human malaria parasite Plasmodium falciparum”.
